Source: patent publication US20170174769A1 (Regeneron, published 2017)
Where a chain is given by its changes, count along the chain named. Numbers in names are those of the source.

T1: extracellular domain of human FGFR1c expressed with C-terminal V5 and hexahistidine tags (human, UniProt P11362 22-376)
T1 construct: also called hFGFR1c-V5-6His
T1 sequence: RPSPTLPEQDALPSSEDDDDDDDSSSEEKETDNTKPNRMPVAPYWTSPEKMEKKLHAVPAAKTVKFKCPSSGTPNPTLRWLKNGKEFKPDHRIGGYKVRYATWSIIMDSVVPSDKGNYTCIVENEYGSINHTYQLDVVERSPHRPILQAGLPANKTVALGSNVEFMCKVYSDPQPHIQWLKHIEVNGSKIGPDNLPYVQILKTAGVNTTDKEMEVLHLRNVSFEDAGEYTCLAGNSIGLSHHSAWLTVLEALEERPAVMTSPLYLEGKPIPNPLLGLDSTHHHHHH

T2: extracellular domain of human KLB expressed with C-terminal HA and hexahistidine tags (human, UniProt Q86Z14 1-996)
T2 construct: also called hKLB-HA-6His; hKLB-HA-6his
T2 sequence: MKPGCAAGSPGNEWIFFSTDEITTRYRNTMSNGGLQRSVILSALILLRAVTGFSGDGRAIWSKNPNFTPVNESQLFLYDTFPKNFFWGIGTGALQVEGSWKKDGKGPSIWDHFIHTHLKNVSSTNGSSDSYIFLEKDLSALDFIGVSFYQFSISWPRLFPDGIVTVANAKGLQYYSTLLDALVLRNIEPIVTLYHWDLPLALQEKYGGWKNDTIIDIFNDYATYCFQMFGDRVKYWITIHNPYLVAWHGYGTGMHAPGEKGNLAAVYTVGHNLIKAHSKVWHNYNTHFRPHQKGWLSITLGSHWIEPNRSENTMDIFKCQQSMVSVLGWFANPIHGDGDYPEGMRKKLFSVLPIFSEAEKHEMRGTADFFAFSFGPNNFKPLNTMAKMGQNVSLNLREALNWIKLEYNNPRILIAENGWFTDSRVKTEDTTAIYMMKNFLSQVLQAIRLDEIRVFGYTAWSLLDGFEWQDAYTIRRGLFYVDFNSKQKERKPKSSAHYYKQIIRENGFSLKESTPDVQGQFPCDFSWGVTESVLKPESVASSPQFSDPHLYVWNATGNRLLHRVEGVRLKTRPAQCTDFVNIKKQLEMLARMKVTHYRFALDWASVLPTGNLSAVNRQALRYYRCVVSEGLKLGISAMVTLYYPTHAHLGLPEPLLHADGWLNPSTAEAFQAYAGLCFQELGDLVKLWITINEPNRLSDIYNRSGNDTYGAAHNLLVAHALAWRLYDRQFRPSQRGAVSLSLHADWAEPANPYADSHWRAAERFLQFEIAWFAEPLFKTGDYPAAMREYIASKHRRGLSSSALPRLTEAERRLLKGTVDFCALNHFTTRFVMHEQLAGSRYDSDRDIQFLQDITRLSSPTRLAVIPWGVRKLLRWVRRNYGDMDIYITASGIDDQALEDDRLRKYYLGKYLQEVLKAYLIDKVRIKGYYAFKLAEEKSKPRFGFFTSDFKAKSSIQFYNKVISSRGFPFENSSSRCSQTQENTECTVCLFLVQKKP

B1: H2aM8092N (antibody, V domains shown)
VH: QVQLQESGPGLVKPSETLSLTCTVSGGSISSYYWSWIRQPPGKGLDWIGHIYYSGTTYYNPSLKSRVSISLDTSKNQFSLKLSSVTAADTAVYYCARHLRGYSSGREFDYWGQGTLVTVSS
VL: DIQMTQSPSSLSASVGGRVSLTCRASQSIFSYLNWYQQKPGKAPKLLIYAASNLQSGVPSRFSGSGSGTDFTLTISSLQPEDFATYSCQQSYNIPYTFGQGTKLEIK
notes: mouse IgG2 Fc (H2aM prefix); also called H2M8092N
B2: H2aM8832N (antibody, V domains shown)
VH: QVQLVESGGGVVQPGRSLRLSCAASGFTFSRYGMHWVRQAPGKGLEWVAVIWYDGTNKYYEDSLKGRFTISRDNSKNTLYLQMNSLRAEDSAVYYCARDQGKYIDYWGQGTLVTVSS
VL: AIQMTQSPSSLSASVGDRVTITCRTSQDIRNDLGWYQQKPGKVPNLLIYAASTLQSGVPSRFSGSGSGTDFTLTISSLQPEDFATYYCLQDYNYPFTFGPGTKVDIK
notes: mouse IgG2 Fc (H2aM prefix)
B3: H2aM8091N (antibody, V domains shown)
VH: QVQLVQSGADMKKPGASVKVSCKASGYTFTTYGINWVRQAPGQGLEWMGWISAYSGITNYAQSFQGRVTMTTDTSTSTAYMELRSLRSDDTAVYYCARGGYNWATGDYFDYWGQGTLVTVSS
VL: DIQMTQSPSTLSASIGDRVTITCRASQSISSWLAWYQQKPGKAPKFLIYKASSLASGVPSRFSGSGSGTEFTLTISSLQPDDFATYYCQQYDSYSPYTFGQGTKVEIK
notes: mouse IgG2 Fc (H2aM prefix); also called H2M8091N
B4: H1H8899P (antibody, V domains shown)
VH: EVQLVESGGGLVQPGGSLRLSCAASGFTFSSHWMSWVRQAPGKGLEWVANIKQDGSEKYYVDSVKGRFTISRDNAKNSLYLQISSLRAEDTAVYYCASNWNFLFDFWGQGTLVTVSS
VL: not shown
B5: H2aM8098N (antibody, V domains shown)
VH: QLQLQESGPGLVKPSETLSLTCTVSGGSISSSNYYWDWIRQTPEKGLEWIGSIHYSGTSYYNPSLKSRVTISVDTSKNQFSLKLRSVTAADAAVYYCARQTSVYWYFDIWGHGTLVTVST
VL: EIVLTQSPGTLSLSPGEGATLSCRASQSVRNNYLAWYQQKPGQAPRLLIYGASSRAIGIPDRFSGSGSGTDFTLTISRLEPKDFVVYYCQQYGGSLFTFGPGTKVDIK
notes: mouse IgG2 Fc (H2aM prefix)
B6: H1H8900P (antibody, V domains shown)
VH: QVQLVESGGGVVQPGRSLRLSCVASGFTFSSYGMHWVRQAPGKGLEWVAVISFDGSNKYYADSVKGRFTISRDNSKNTLYLQMNSLRPADTAVYYCAKDRSNYYYFGMDVWGQGTTVTVSS
VL: DIVMTQTPLSLPVTPGEPASISCRSSQSLLDSDDGNTYLDWYLQKPGQSPQLLIYTLSYRASGVPDRFSGSGSGTDFTLKISRVEAEDVGVYYCMQRIEFPLTFGGGTKVEIK
notes: H1H Fc prefix (human Fc)
B7: H4H8859P (antibody, V domains shown)
VH: EVQLVESGGSVVRPGGSLRLSCAASGFTFDVYGMSWVRQAPGKGLEWVSGINWIGGSTGYADSVKGRFTISRDNAKNSLYLQMNSLRAEDTALYYCTREEDYWGQGTLVTVSS
VL: DVVMTQSPLSLAVTLGQPASISCRSSQSLVYSDGNTYLNWFQQRPGQSPRRLFYKVSNRDSGVPDRFSGSGSGTDFTLKISRVEAEDVGIYYCMQGIKWPLTFGGGTKVEIK
notes: human IgG4 Fc (H4H prefix)
B8: H4H8870P (antibody, V domains shown)
VH: B7 VH with S10G, T28K, A40L, N52S, I54T, T58S, A75G, N77K
VL: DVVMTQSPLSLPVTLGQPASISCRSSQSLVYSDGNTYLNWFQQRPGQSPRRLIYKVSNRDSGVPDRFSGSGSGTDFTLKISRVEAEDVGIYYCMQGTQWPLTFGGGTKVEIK
notes: human IgG4 Fc (H4H prefix)

Biological target: M. fascicularis KLB and human FGFR1c co-expressed on HEK293/MfKLB/hFGFR1c/SRE-Luc cells (M. fascicularis; human, UniProt A0A2K5WB58 1-1044)
Assay: cell-based or functional assay

Sequence of M. fascicularis KLB and human FGFR1c co-expressed on HEK293/MfKLB/hFGFR1c/SRE-Luc cells (chain, as listed by the source, chain 1 of 2): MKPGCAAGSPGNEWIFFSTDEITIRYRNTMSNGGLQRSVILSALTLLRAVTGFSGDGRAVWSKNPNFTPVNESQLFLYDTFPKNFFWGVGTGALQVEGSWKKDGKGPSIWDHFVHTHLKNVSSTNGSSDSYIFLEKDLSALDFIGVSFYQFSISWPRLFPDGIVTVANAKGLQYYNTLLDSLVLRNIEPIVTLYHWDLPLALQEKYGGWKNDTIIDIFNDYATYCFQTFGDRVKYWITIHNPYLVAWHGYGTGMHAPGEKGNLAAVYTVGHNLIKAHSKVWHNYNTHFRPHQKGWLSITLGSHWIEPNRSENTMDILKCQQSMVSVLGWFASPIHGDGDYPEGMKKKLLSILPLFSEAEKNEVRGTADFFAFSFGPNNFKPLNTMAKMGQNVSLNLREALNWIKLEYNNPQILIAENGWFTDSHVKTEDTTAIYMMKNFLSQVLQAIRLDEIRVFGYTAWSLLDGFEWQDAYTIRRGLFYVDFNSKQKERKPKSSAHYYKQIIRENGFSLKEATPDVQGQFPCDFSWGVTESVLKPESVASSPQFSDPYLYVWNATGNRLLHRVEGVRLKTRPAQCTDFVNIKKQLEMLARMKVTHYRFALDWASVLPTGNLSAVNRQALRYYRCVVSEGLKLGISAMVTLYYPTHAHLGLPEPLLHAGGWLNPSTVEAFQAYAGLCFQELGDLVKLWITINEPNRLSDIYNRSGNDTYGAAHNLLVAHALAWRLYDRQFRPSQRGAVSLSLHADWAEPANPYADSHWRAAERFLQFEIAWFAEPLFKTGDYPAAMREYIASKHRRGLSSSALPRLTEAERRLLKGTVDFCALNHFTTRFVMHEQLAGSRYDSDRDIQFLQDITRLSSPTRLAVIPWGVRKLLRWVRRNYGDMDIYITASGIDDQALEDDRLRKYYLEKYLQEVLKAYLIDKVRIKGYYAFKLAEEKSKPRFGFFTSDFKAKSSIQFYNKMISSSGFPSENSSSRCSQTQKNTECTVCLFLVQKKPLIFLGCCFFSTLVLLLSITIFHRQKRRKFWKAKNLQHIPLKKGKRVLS
Sequence of M. fascicularis KLB and human FGFR1c co-expressed on HEK293/MfKLB/hFGFR1c/SRE-Luc cells (chain, as listed by the source, chain 2 of 2): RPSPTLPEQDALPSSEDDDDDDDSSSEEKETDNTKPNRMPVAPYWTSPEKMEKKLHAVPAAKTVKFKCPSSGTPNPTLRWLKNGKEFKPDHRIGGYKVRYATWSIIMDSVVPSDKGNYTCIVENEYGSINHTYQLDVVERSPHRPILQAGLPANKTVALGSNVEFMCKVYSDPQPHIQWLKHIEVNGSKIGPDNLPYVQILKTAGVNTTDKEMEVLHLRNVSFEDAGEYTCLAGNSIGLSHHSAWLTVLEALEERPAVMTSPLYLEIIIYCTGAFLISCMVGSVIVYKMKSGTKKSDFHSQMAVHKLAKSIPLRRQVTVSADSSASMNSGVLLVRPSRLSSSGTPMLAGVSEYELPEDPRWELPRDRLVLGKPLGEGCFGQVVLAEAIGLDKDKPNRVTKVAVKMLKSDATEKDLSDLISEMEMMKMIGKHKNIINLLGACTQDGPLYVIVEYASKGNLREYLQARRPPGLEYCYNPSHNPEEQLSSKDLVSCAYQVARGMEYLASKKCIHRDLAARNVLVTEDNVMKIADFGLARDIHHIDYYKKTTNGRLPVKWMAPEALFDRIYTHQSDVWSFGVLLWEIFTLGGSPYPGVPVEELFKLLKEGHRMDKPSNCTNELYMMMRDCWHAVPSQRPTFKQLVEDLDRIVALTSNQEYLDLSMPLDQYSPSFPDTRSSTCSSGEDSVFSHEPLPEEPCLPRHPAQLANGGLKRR

IC50, inhibition of 10 nM mfFGF21	Maximum Inhibition (%) of 10 nM mfFGF21	Binder
0.22 nM	18%	B1
0.11 nM	15%	B2
2.3 nM	104%	B3

Biological target: T3, human KLB and human FGFR1c co-expressed on HEK293/hKLB/hFGFR1c/SRE-luc cells (human, UniProt Q86Z14 1-1044; P11362 22-822)
Assay: cell-based or functional assay

IC50, inhibition of 1 nM hFGF21	Maximum Inhibition (%) of 1 nM hFGF21	Binder
0.04 nM	20%	B4
0.12 nM	50%	B1
15 nM	62%	B5
1.5 nM	106%	B3
4.5 nM	41%	B6

Biological target: T3, human KLB and human FGFR1c co-expressed …
Assay: cell-based or functional assay
Remark: another data set of the same source

EC50, SRE-luc activation without ligand	Maximum Activation (%) without ligand	Binder
0.2 nM	1%	B1
23 nM	1%	B5
0.75 nM	4%	B2
3.6 nM	1%	B3
17 nM	2%	B6

Biological target: T1, extracellular domain of human FGFR1c …
Assay: SPR, mAb captured, 25 C
Method: (§1) Equilibrium dissociation constants (KD values) for human KLB or human FGFR1c binding to purified anti-KLB/FGFR1c monoclonal antibodies were determined using a real-time surface plasmon resonance biosensor using a Biacore T-200 or 4000 instrument. The Biacore sensor surface was derivatized by amine coupling with either a polyclonal rabbit anti-mouse antibody (GE, # BR-1008-38) or with a monoclonal mouse anti-human Fc antibody (GE, # BR-1008-39) to capture anti-KLB/FGFR1c monoclonal antibodies expressed with either a mouse Fc or a human Fc, respectively. All Biacore binding studies were performed in a buffer composed of 0.01M HEPES pH 7.4, 0.15M NaCl, 3mM EDTA, 0.05% v/v Surfactant P20 (HBST running buffer). […] Association of hKLB-HA-6His or hFGFR1c-V5-6His to the captured monoclonal antibody was monitored for 3.5 to 4 minutes and the dissociation of hKLB-HA-6His or hFGFR1c-V5-6His in HBST running buffer was monitored for 8-12 minutes. All the binding kinetics experiments were performed at 25° C. or 37° C. Kinetic association (kₐ) and dissociation (kd) rate constants were determined by fitting the real-time sensorgrams to a 1:1 binding model using Scrubber 2.0c curve fitting software. Binding dissociation equilibrium constants (KD) and dissociative half-lives (t½) were calculated from the kinetic rate constants as: […]

180 nM hFGFR1c-V5-6His Bind (RU)	binding result	Kd	koff	kon	t1/2	Binder
2.4 RU	no binding (tested: 180 nM)	–	–	–	–	B4
4.9 RU	–	352 nM	0.0536 s⁻¹	152000 M⁻¹ s⁻¹	13.2 s	B7
6.9 RU	–	197 nM	0.0432 s⁻¹	219000 M⁻¹ s⁻¹	16.2 s	B8
-1.3 RU	–	–	–	–	–	B1
-0.9 RU	–	–	–	–	–	B5
5.8 RU	–	–	–	–	–	B2
-0.8 RU	–	–	–	–	–	B3
1.3 RU	no binding (tested: 180 nM)	–	–	–	–	B6

Biological target: T2, extracellular domain of human KLB …
Assay: SPR, mAb captured, 25 C
Method: as §1

20 nM hKLB-HA-6His Bind (RU)	Kd	koff	kon	t1/2	binding result	Binder
0.5 RU	–	–	–	–	–	B4
-0.8 RU	–	–	–	–	–	B7
-0.6 RU	–	–	–	–	–	B8
64.1 RU	0.383 nM	5.56e-05 s⁻¹	145000 M⁻¹ s⁻¹	3.46 h	–	B1
2.7 RU	–	–	–	–	–	B5
-0.2 RU	–	–	–	–	–	B2
-2 RU	–	–	–	–	–	B3
0.3 RU	–	–	–	–	no binding (tested: 60 nM)	B6

Biological target: T1, extracellular domain of human FGFR1c …
Assay: SPR, mAb captured, 37 C
Method: as §1

180 nM hFGFR1c-V5-6His Bind (RU)	Kd	koff	kon	t1/2	Binder
2.8 RU	–	–	–	–	B4
6.8 RU	497 nM	0.0382 s⁻¹	76800 M⁻¹ s⁻¹	18 s	B7
10.6 RU	301 nM	0.0795 s⁻¹	264000 M⁻¹ s⁻¹	6 s	B8
0.5 RU	–	–	–	–	B1
-1.4 RU	–	–	–	–	B5
2.3 RU	–	–	–	–	B2
-1.3 RU	–	–	–	–	B3
1.6 RU	–	–	–	–	B6

Biological target: T2, extracellular domain of human KLB …
Assay: SPR, mAb captured, 37 C
Method: as §1

20 nM hKLB-HA-6His Bind (RU)	Kd	koff	kon	t1/2	Binder
-0.1 RU	–	–	–	–	B4
0.8 RU	–	–	–	–	B7
-0.8 RU	–	–	–	–	B8
93.6 RU	0.412 nM	8e-05 s⁻¹	194000 M⁻¹ s⁻¹	2.41 h	B1
3.9 RU	–	–	–	–	B5
-0.7 RU	–	–	–	–	B2
-2.3 RU	–	–	–	–	B3
2.6 RU	–	–	–	–	B6
